Assay results as given in the supplement of paper PMC7125110.
± gives the standard error. For some of these results: This sample holds only a part of the variants without activity.

B1: glmS ribozyme (parent)
chain: AUAAAAGCGCCAGAACUACAGAAAUGUAGUUGACGAGGAGGAGGUUUAUCGAAUUUUCGGCGGAUGCCUCCAAA

How the values were obtained:
Settings in all cases: with glucosamine-6-phosphate
[1] = variants of: B1; assay: kcat; higher = faster cleavage; RNA array
Summary of the method: (§1)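 Over ~14 h at 37 °C, tiles were imaged as glucosamine-6-phosphate (40 μM to 10 mM) in HEPES/KCl/Mg(OAc)2 buffer flowed across sequenced MiSeq chips. The chips carried barcoded ribozyme variants transcribed in situ by E. coli RNA polymerase and tracked with a hybridised Cy3 probe. After normalisation to baseline and to non-cleaving reference variants, one- or two-exponential decay fits of per-tile medians gave kobs. kcat and KM followed from weighted Michaelis–Menten fits across concentrations.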

[2] = variants of: B1; assay: KM; higher = weaker cofactor use; RNA array
Summary of the method: as §1

[3] = variants of: B1; assay: self-cleavage kobs at 40 uM GlcN6P; higher = faster cleavage; RNA array
Summary of the method: as §1

[4] = variants of: B1; assay: self-cleavage kobs at 160 uM GlcN6P; higher = faster cleavage; RNA array
Summary of the method: as §1

[5] = variants of: B1; assay: self-cleavage kobs at 640 uM GlcN6P; higher = faster cleavage; RNA array
Summary of the method: as §1

[6] = variants of: B1; assay: self-cleavage kobs at 2500 uM GlcN6P; higher = faster cleavage; RNA array
Summary of the method: as §1

[7] = variants of: B1; assay: self-cleavage kobs at 10000 uM GlcN6P; higher = faster cleavage; RNA array
Summary of the method: as §1

Variant	kcat [1] [s⁻¹]	KM [2] [µM]	self-cleavage kobs at 40 uM GlcN6P [3] [s⁻¹]	self-cleavage kobs at 160 uM GlcN6P [4] [s⁻¹]	self-cleavage kobs at 640 uM GlcN6P [5] [s⁻¹]	self-cleavage kobs at 2500 uM GlcN6P [6] [s⁻¹]	self-cleavage kobs at 10000 uM GlcN6P [7] [s⁻¹]
U31A A39U	0.0125 ± 0.0029	3370 ± 1000	0.000161 ± 2.9e-05	0.000508 ± 8.4e-05	0.00196 ± 0.00029	0.00802 ± 0.0015	0.00871 ± 0.0014
U31A A42G U47A	0.00933 ± 0.0047	–	0.000345 ± 9.2e-05	–	0.00346 ± 0.001	–	0.00844 ± 0.0039
U31C G32A C58A U65G	4.59e-05 ± 1e-06	2320 ± 190	–	–	–	–	3.72e-05 ± 1.4e-05
U30C G32A	0.00241 ± 0.00034	3840 ± 740	–	0.000106 ± 1.2e-05	0.000321 ± 4.3e-05	0.000932 ± 8.8e-05	0.00181 ± 0.00026
U31A A42U	0.000111 ± 8.8e-06	3380 ± 670	–	–	–	5.06e-05 ± 1.3e-05	8.19e-05 ± 1.4e-05
U30G C68G	3.09e-05 ± 2.2e-06	120 ± 57	–	–	–	3.26e-05 ± 1.2e-05	2.71e-05 ± 1.3e-05
U30C U56G	0.000308 ± 7.9e-05	–	–	–	8.86e-05 ± 1.3e-05	0.000135 ± 1.8e-05	0.000296 ± 3.5e-05
U31C A53G C70U	0.0038 ± 0.00074	620 ± 200	0.000212 ± 4.6e-05	–	0.00265 ± 0.00055	0.00272 ± 0.00079	0.00339 ± 0.00081
U30C G37A	2.63e-05 ± 1.2e-06	710 ± 290	–	–	–	–	2.44e-05 ± 9e-06
U30G C70G	0.000136 ± 7.2e-06	439 ± 110	–	–	9.18e-05 ± 2.2e-05	0.000124 ± 2.3e-05	0.000127 ± 1.4e-05
U31A G40A	0.00231 ± 0.00021	1250 ± 170	7.32e-05 ± 1.2e-05	0.000266 ± 0.00011	0.000717 ± 0.00016	0.00206 ± 0.00066	0.00201 ± 0.00033
U30C G41A	1.28e-05 ± 1.8e-06	–	–	–	< 1e-05	–	–
U30G G41U	0.000172 ± 2.3e-05	440 ± 190	–	3.73e-05 ± 1.4e-05	0.000153 ± 3.3e-05	0.000149 ± 2.6e-05	0.000154 ± 2.4e-05
U31A G32C	0.000234 ± 1.1e-05	1950 ± 290	–	–	5.55e-05 ± 1.8e-05	0.000141 ± 3e-05	0.000194 ± 2.1e-05
U30G	0.0156 ± 0.0046	2400 ± 840	0.000284 ± 5.6e-06	0.000809 ± 3e-05	0.00344 ± 0.00013	0.00622 ± 0.00028	0.0157 ± 0.00058
